Each block holds one compound with its values, some of them ahead of it.
Key:
TkTusA = molecular target: T1, TkTusA (Thioalkalivibrio sp. K90mix, UniProt D3SF79); experiment: MALDI-TOF mass shift; type: biochemical; conditions: […] tetrathionate, […] Tris-HCl pH […]; covalent
T1 sequence (D3SF79 2-76): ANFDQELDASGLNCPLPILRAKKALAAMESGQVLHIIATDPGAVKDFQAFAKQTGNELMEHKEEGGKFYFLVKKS

[1] = molecular target: DsrE3B from Thioalkalivibrio sp. K90mix (Thioalkalivibrio sp. K90mix); experiment: SEC
[2] = molecular target: DsrE3C from Hyphomicrobium denitrificans (Hyphomicrobium denitrificans); experiment: SEC

Compound: O=S(=O)(O)SSS(=O)(=O)O [tetrathionate]
MALDI-TOF mass shift (TkTusA): TusA proteins from bacteria that were examined in this study displayed reaction with tetrathionate

Compound: DsrE3B from Thioalkalivibrio sp. K90mix (natural protein)
stoichiometry N [1]: 3

stoichiometry N [2]: 3
Compound: DsrE3C from Hyphomicrobium denitrificans (natural protein)
